Substrate in this data set: N[C@@H](CCC(=O)N[C@H](CSc1ccc([N+](=O)[O-])cc1[N+](=O)[O-])C(=O)NCC(=O)O)C(=O)O
Description: TP_TRANSPORTER: uptake in membrane vesicle from MRP1-expressing HeLa cells. It is filed as functional, cell membranes.

B1: Multidrug resistance-associated protein 1 (Homo sapiens) (protein)
chain: MALRGFCSADGSDPLWDWNVTWNTSNPDFTKCFQNTVLVWVPCFYLWACFPFYFLYLSRHDRGYIQMTPLNKTKTALGFLLWIVCWADLFYSFWERSRGIFLAPVFLVSPTLLGITMLLATFLIQLERRKGVQSSGIMLTFWLVALVCALAILRSKIMTALKEDAQVDLFRDITFYVYFSLLLIQLVLSCFSDRSPLFSETIHDPNPCPESSASFLSRITFWWITGLIVRGYRQPLEGSDLWSLNKEDTSEQVVPVLVKNWKKECAKTRKQPVKVVYSSKDPAQPKESSKVDANEEVEALIVKSPQKEWNPSLFKVLYKTFGPYFLMSFFFKAIHDLMMFSGPQILKLLIKFVNDTKAPDWQGYFYTVLLFVTACLQTLVLHQYFHICFVSGMRIKTAVIGAVYRKALVITNSARKSSTVGEIVNLMSVDAQRFMDLATYINMIWSAPLQVILALYLLWLNLGPSVLAGVAVMVLMVPVNAVMAMKTKTYQVAHMKSKDNRIKLMNEILNGIKVLKLYAWELAFKDKVLAIRQEELKVLKKSAYLSAVGTFTWVCTPFLVALCTFAVYVTIDENNILDAQTAFVSLALFNILRFPLNILPMVISSIVQASVSLKRLRIFLSHEELEPDSIERRPVKDGGGTNSITVRNATFTWARSDPPTLNGITFSIPEGALVAVVGQVGCGKSSLLSALLAEMDKVEGHVAIKGSVAYVPQQAWIQNDSLRENILFGCQLEEPYYRSVIQACALLPDLEILPSGDRTEIGEKGVNLSGGQKQRVSLARAVYSNADIYLFDDPLSAVDAHVGKHIFENVIGPKGMLKNKTRILVTHSMSYLPQVDVIIVMSGGKISEMGSYQELLARDGAFAEFLRTYASTEQEQDAEENGVTGVSGPGKEAKQMENGMLVTDSAGKQLQRQLSSSSSYSGDISRHHNSTAELQKAEAKKEETWKLMEADKAQTGQVKLSVYWDYMKAIGLFISFLSIFLFMCNHVSALASNYWLSLWTDDPIVNGTQEHTKVRLSVYGALGISQGIAVFGYSMAVSIGGILASRCLHVDLLHSILRSPMSFFERTPSGNLVNRFSKELDTVDSMIPEVIKMFMGSLFNVIGACIVILLATPIAAIIIPPLGLIYFFVQRFYVASSRQLKRLESVSRSPVYSHFNETLLGVSVIRAFEEQERFIHQSDLKVDENQKAYYPSIVANRWLAVRLECVGNCIVLFAALFAVISRHSLSAGLVGLSVSYSLQVTTYLNWLVRMSSEMETNIVAVERLKEYSETEKEAPWQIQETAPPSSWPQVGRVEFRNYCLRYREDLDFVLRHINVTINGGEKVGIVGRTGAGKSSLTLGLFRINESAEGEIIIDGINIAKIGLHDLRFKITIIPQDPVLFSGSLRMNLDPFSQYSDEEVWTSLELAHLKDFVSALPDKLDHECAEGGENLSVGQRQLVCLARALLRKTKILVLDEATAAVDLETDDLIQSTIRTQFEDCTVLTIAHRLNTIMDYTRVIVLDKGEIQEYGAPSDLLQQRGLFYSMAKDAGLV
What is called Km is the substrate concentration at which the rate is half of its maximum. As to B1, the Km came out at 3.6 µM.

Values taken from ChEMBL document CHEMBL2074072, “Transport of glutathione, glucuronate, and sulfate conjugates by the MRP gene-encoded conjugate export pump” (Cancer Res, 1996).
